Measurements taken from patent US20260049138A1 (Chugai, published 2026).

B1: GLS3000 V27cY one-arm antibody (antibody, human IgG1, kappa, L234A L235A, N297A, name in Kabat numbering)
heavy: QVQLVESGGGVVQPGRSLRLSCAASGFTFSNAWMHWVRQAPGKGLEWVAQIKAKSNNYATYYAESVKGRFTISRDDSKNSLYLQMNSLKTEDTAVYYCRYVHYGAYYGVDAWGQGTTVTVSSASTKGPSVFPLAPSSKSTSGGTAALGCLVKDYFPEPVTVSWNSGALTSGVHTFPAVLQSSGLYSLSSVVTVPSSSLGTQTYICNVNHKPSNTKVDKKVEPKSCDKTHTCPPCPAPEAAGGPSVFLFPPKPKDTLMISRTPEVTCVVVDVSHEDPEVKFNWYVDGVEVHNAKTKPREEQYASTYRVVSVLTVLHQDWLNGKEYKCKVSNKALPAPIEKTISKAKGQPREPQVYTLPPSRCELTKNQVSLSCAVKGFYPSDIAVEWESNGQPENNYKTTPPVLDSDGSFFLVSKLTVDKSRWQQGNVFSCSVMHEALHNHYTQKSLSLSPDYKDDDDK
chain: EPKSSDKTHTCPPCPAPELLGGPSVFLFPPKPKDTLMISRTPEVTCVVVDVSHEDPEVKFNWYVDGVEVHNAKTKPREEQYNSTYRVVSVLTVLHQDWLNGKEYKCKVSNKALPAPIEKTISKAKGQPREPQVCTLPPSRDELTKNQVSLWCLVKGFYPSDIAVEWESNGQPENNYKTTPPVLDSDGSFFLYSKLTVDKSRWQQGNVFSCSVMHEALHNRYTQKSLSLSP
light: DIVMTQSPLSLPVTPGEPASISCRSSQSLYHSNRNTYLHWYQQKPGQAPRLLIYKVSNRFSGVPDRFSGSGSGTDFTLKISRVEAEDVGVYYCGQGTQVPYTFGQGTKLEIKRTVAAPSVFIFPPSDEQLKSGTASVVCLLNNFYPREAKVQWKVDNALQSGNSQESVTEQDSKDSTYSLSSTLTLSKADYEKHKVYACEVTHQGLSSPVTKSFNRGEC
B2: GLS3000 V51D one-arm antibody (antibody, human IgG1, kappa, L234A L235A, N297A, name in Kabat numbering)
heavy: QVQLVESGGGVVQPGRSLRLSCAASGFTFSNAWMHWVRQAPGKGLEWVAQIKAKSNNYATYYAESVKGRFTISRDDSKNSLYLQMNSLKTEDTAVYYCRYVHYGAYYGVDAWGQGTTVTVSSASTKGPSVFPLAPSSKSTSGGTAALGCLVKDYFPEPVTVSWNSGALTSGVHTFPAVLQSSGLYSLSSVVTVPSSSLGTQTYICNVNHKPSNTKVDKKVEPKSCDKTHTCPPCPAPEAAGGPSVFLFPPKPKDTLMISRTPEVTCVVVDVSHEDPEVKFNWYVDGVEVHNAKTKPREEQYASTYRVVSVLTVLHQDWLNGKEYKCKVSNKALPAPIEKTISKAKGQPREPQVYTLPPSRCELTKNQVSLSCAVKGFYPSDIAVEWESNGQPENNYKTTPPVLDSDGSFFLVSKLTVDKSRWQQGNVFSCSVMHEALHNHYTQKSLSLSPDYKDDDDK
chain: EPKSSDKTHTCPPCPAPELLGGPSVFLFPPKPKDTLMISRTPEVTCVVVDVSHEDPEVKFNWYVDGVEVHNAKTKPREEQYNSTYRVVSVLTVLHQDWLNGKEYKCKVSNKALPAPIEKTISKAKGQPREPQVCTLPPSRDELTKNQVSLWCLVKGFYPSDIAVEWESNGQPENNYKTTPPVLDSDGSFFLYSKLTVDKSRWQQGNVFSCSVMHEALHNRYTQKSLSLSP
light: DIVMTQSPLSLPVTPGEPASISCRSSQSLVHSNRNTYLHWYQQKPGQAPRLLIYKDSNRFSGVPDRFSGSGSGTDFTLKISRVEAEDVGVYYCGQGTQVPYTFGQGTKLEIKRTVAAPSVFIFPPSDEQLKSGTASVVCLLNNFYPREAKVQWKVDNALQSGNSQESVTEQDSKDSTYSLSSTLTLSKADYEKHKVYACEVTHQGLSSPVTKSFNRGEC
B3: GLS3000 V51E one-arm antibody (antibody, human IgG1, kappa, L234A L235A, N297A, name in Kabat numbering)
heavy: QVQLVESGGGVVQPGRSLRLSCAASGFTFSNAWMHWVRQAPGKGLEWVAQIKAKSNNYATYYAESVKGRFTISRDDSKNSLYLQMNSLKTEDTAVYYCRYVHYGAYYGVDAWGQGTTVTVSSASTKGPSVFPLAPSSKSTSGGTAALGCLVKDYFPEPVTVSWNSGALTSGVHTFPAVLQSSGLYSLSSVVTVPSSSLGTQTYICNVNHKPSNTKVDKKVEPKSCDKTHTCPPCPAPEAAGGPSVFLFPPKPKDTLMISRTPEVTCVVVDVSHEDPEVKFNWYVDGVEVHNAKTKPREEQYASTYRVVSVLTVLHQDWLNGKEYKCKVSNKALPAPIEKTISKAKGQPREPQVYTLPPSRCELTKNQVSLSCAVKGFYPSDIAVEWESNGQPENNYKTTPPVLDSDGSFFLVSKLTVDKSRWQQGNVFSCSVMHEALHNHYTQKSLSLSPDYKDDDDK
chain: EPKSSDKTHTCPPCPAPELLGGPSVFLFPPKPKDTLMISRTPEVTCVVVDVSHEDPEVKFNWYVDGVEVHNAKTKPREEQYNSTYRVVSVLTVLHQDWLNGKEYKCKVSNKALPAPIEKTISKAKGQPREPQVCTLPPSRDELTKNQVSLWCLVKGFYPSDIAVEWESNGQPENNYKTTPPVLDSDGSFFLYSKLTVDKSRWQQGNVFSCSVMHEALHNRYTQKSLSLSP
light: DIVMTQSPLSLPVTPGEPASISCRSSQSLVHSNRNTYLHWYQQKPGQAPRLLIYKESNRFSGVPDRFSGSGSGTDFTLKISRVEAEDVGVYYCGQGTQVPYTFGQGTKLEIKRTVAAPSVFIFPPSDEQLKSGTASVVCLLNNFYPREAKVQWKVDNALQSGNSQESVTEQDSKDSTYSLSSTLTLSKADYEKHKVYACEVTHQGLSSPVTKSFNRGEC
B4: GLS3000 V51G one-arm antibody (antibody, human IgG1, kappa, L234A L235A, N297A, name in Kabat numbering)
heavy: QVQLVESGGGVVQPGRSLRLSCAASGFTFSNAWMHWVRQAPGKGLEWVAQIKAKSNNYATYYAESVKGRFTISRDDSKNSLYLQMNSLKTEDTAVYYCRYVHYGAYYGVDAWGQGTTVTVSSASTKGPSVFPLAPSSKSTSGGTAALGCLVKDYFPEPVTVSWNSGALTSGVHTFPAVLQSSGLYSLSSVVTVPSSSLGTQTYICNVNHKPSNTKVDKKVEPKSCDKTHTCPPCPAPEAAGGPSVFLFPPKPKDTLMISRTPEVTCVVVDVSHEDPEVKFNWYVDGVEVHNAKTKPREEQYASTYRVVSVLTVLHQDWLNGKEYKCKVSNKALPAPIEKTISKAKGQPREPQVYTLPPSRCELTKNQVSLSCAVKGFYPSDIAVEWESNGQPENNYKTTPPVLDSDGSFFLVSKLTVDKSRWQQGNVFSCSVMHEALHNHYTQKSLSLSPDYKDDDDK
chain: EPKSSDKTHTCPPCPAPELLGGPSVFLFPPKPKDTLMISRTPEVTCVVVDVSHEDPEVKFNWYVDGVEVHNAKTKPREEQYNSTYRVVSVLTVLHQDWLNGKEYKCKVSNKALPAPIEKTISKAKGQPREPQVCTLPPSRDELTKNQVSLWCLVKGFYPSDIAVEWESNGQPENNYKTTPPVLDSDGSFFLYSKLTVDKSRWQQGNVFSCSVMHEALHNRYTQKSLSLSP
light: DIVMTQSPLSLPVTPGEPASISCRSSQSLVHSNRNTYLHWYQQKPGQAPRLLIYKGSNRFSGVPDRFSGSGSGTDFTLKISRVEAEDVGVYYCGQGTQVPYTFGQGTKLEIKRTVAAPSVFIFPPSDEQLKSGTASVVCLLNNFYPREAKVQWKVDNALQSGNSQESVTEQDSKDSTYSLSSTLTLSKADYEKHKVYACEVTHQGLSSPVTKSFNRGEC
B5: GLS3000 V51I one-arm antibody (antibody, human IgG1, kappa, L234A L235A, N297A, name in Kabat numbering)
heavy: QVQLVESGGGVVQPGRSLRLSCAASGFTFSNAWMHWVRQAPGKGLEWVAQIKAKSNNYATYYAESVKGRFTISRDDSKNSLYLQMNSLKTEDTAVYYCRYVHYGAYYGVDAWGQGTTVTVSSASTKGPSVFPLAPSSKSTSGGTAALGCLVKDYFPEPVTVSWNSGALTSGVHTFPAVLQSSGLYSLSSVVTVPSSSLGTQTYICNVNHKPSNTKVDKKVEPKSCDKTHTCPPCPAPEAAGGPSVFLFPPKPKDTLMISRTPEVTCVVVDVSHEDPEVKFNWYVDGVEVHNAKTKPREEQYASTYRVVSVLTVLHQDWLNGKEYKCKVSNKALPAPIEKTISKAKGQPREPQVYTLPPSRCELTKNQVSLSCAVKGFYPSDIAVEWESNGQPENNYKTTPPVLDSDGSFFLVSKLTVDKSRWQQGNVFSCSVMHEALHNHYTQKSLSLSPDYKDDDDK
chain: EPKSSDKTHTCPPCPAPELLGGPSVFLFPPKPKDTLMISRTPEVTCVVVDVSHEDPEVKFNWYVDGVEVHNAKTKPREEQYNSTYRVVSVLTVLHQDWLNGKEYKCKVSNKALPAPIEKTISKAKGQPREPQVCTLPPSRDELTKNQVSLWCLVKGFYPSDIAVEWESNGQPENNYKTTPPVLDSDGSFFLYSKLTVDKSRWQQGNVFSCSVMHEALHNRYTQKSLSLSP
light: DIVMTQSPLSLPVTPGEPASISCRSSQSLVHSNRNTYLHWYQQKPGQAPRLLIYKISNRFSGVPDRFSGSGSGTDFTLKISRVEAEDVGVYYCGQGTQVPYTFGQGTKLEIKRTVAAPSVFIFPPSDEQLKSGTASVVCLLNNFYPREAKVQWKVDNALQSGNSQESVTEQDSKDSTYSLSSTLTLSKADYEKHKVYACEVTHQGLSSPVTKSFNRGEC
B6: GLS3000 V51P one-arm antibody (antibody, human IgG1, kappa, L234A L235A, N297A, name in Kabat numbering)
heavy: QVQLVESGGGVVQPGRSLRLSCAASGFTFSNAWMHWVRQAPGKGLEWVAQIKAKSNNYATYYAESVKGRFTISRDDSKNSLYLQMNSLKTEDTAVYYCRYVHYGAYYGVDAWGQGTTVTVSSASTKGPSVFPLAPSSKSTSGGTAALGCLVKDYFPEPVTVSWNSGALTSGVHTFPAVLQSSGLYSLSSVVTVPSSSLGTQTYICNVNHKPSNTKVDKKVEPKSCDKTHTCPPCPAPEAAGGPSVFLFPPKPKDTLMISRTPEVTCVVVDVSHEDPEVKFNWYVDGVEVHNAKTKPREEQYASTYRVVSVLTVLHQDWLNGKEYKCKVSNKALPAPIEKTISKAKGQPREPQVYTLPPSRCELTKNQVSLSCAVKGFYPSDIAVEWESNGQPENNYKTTPPVLDSDGSFFLVSKLTVDKSRWQQGNVFSCSVMHEALHNHYTQKSLSLSPDYKDDDDK
chain: EPKSSDKTHTCPPCPAPELLGGPSVFLFPPKPKDTLMISRTPEVTCVVVDVSHEDPEVKFNWYVDGVEVHNAKTKPREEQYNSTYRVVSVLTVLHQDWLNGKEYKCKVSNKALPAPIEKTISKAKGQPREPQVCTLPPSRDELTKNQVSLWCLVKGFYPSDIAVEWESNGQPENNYKTTPPVLDSDGSFFLYSKLTVDKSRWQQGNVFSCSVMHEALHNRYTQKSLSLSP
light: DIVMTQSPLSLPVTPGEPASISCRSSQSLVHSNRNTYLHWYQQKPGQAPRLLIYKPSNRFSGVPDRFSGSGSGTDFTLKISRVEAEDVGVYYCGQGTQVPYTFGQGTKLEIKRTVAAPSVFIFPPSDEQLKSGTASVVCLLNNFYPREAKVQWKVDNALQSGNSQESVTEQDSKDSTYSLSSTLTLSKADYEKHKVYACEVTHQGLSSPVTKSFNRGEC

Molecular target: T1, CD3ε homodimer protein (human, UniProt P07766 23-126, limits assumed)
T1 construct: also called CD3 (CD3ε)
Assay: SPR Biacore T200, CD3ε homodimer on chip;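 also: Light-chain single-residue variant antibodies injected over amine-coupled CD3ε homodimer on a CM4 chip at 25 °C, bound amount divided by that of the GLS3000-containing antibody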

T1 sequence (P07766 23-126 limits assumed): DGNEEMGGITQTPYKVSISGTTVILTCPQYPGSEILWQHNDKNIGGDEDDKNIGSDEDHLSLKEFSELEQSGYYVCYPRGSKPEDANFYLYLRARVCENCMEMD

Binder	ratio of amount bound vs unaltered GLS3000
B1	0.77
B2	0.33
B3	0.64
B4	0.84
B5	0.81
B6	0.32
